According to patent publication US20230030674A1 (SOTIO BIOTECH A S, published 2023):

Tests used:
[1] = molecular target: T1, huCLDN18.2 (human, UniProt P56856-2 1-261); assay: flow cytometry titration on HEK293T cells overexpressing CLDN18.2
T1 construct: whole, on cells; Full-length huCLDN18.2 stably overexpressed in HEK293T cells (pPB-Puro-huCldn18.2); also called human CLDN18.2
Protocol: (§1) A PE-coupled secondary anti-human IgG antibody was added to the cells for additional 30 min at 4° C. after washes with the FACS buffer, followed by further washes with FC buffer. The cells were then resuspended in 100 μl FC buffer and measured with a FACSCalibur™ cell analyzer (BD Biosciences, USA).

[2] = molecular target: T1, huCLDN18.2; assay: flow cytometry titration on PA-TU-8988S-High cells (endogenous CLDN18.2)
Protocol: as §1

Binder | EC50 [1] [µg/mL] | Max MFI [1] [MFI] | EC50 [2] [µg/mL] | Max MFI [2] [MFI]
IMAB362 (antibody, human IgG1, kappa, V domains shown, X and which chain(s) are not specified, so the tags are not built in; also called Claudiximab; Zolbetuximab) VH: QVQLQQPGAELVRPGASVKLSCKASGYTFTSYWINWVKQRPGQGLEWIGNIYPSDSYTNYNQKFKDKATLTVDKSSSTAYMQLSSPTSEDSAVYYCTRSWRGNSFDYWGQGTTLTVSS VL: DIVMTQSPSSLTVTAGEKVTMSCKSSQSLLNSGNQKNYLTWYQQKPGQPPKLLIYWASTRESGVPDRFTGSGSGTDFTLTISSVQAEDLAVYYCQNDYSYPFTFGSGTKLEIKR | 0.388 | 1970 | 0.508 | 1050
hGBA-1 (antibody, human IgG1, kappa, V domains shown, Humanized IgG1; X and chain(s) not specified, so tags not built in) VH: EVQLVQSGAEVKKPGESLKISCKGSGYSFTSYWIGWVRQMPGKGLEWMGNIYPGASDTRYAPSFQGQVTISADKSISTAYLQWSSLKASDTAMYYCARLWRGNSFDYWGQGTLVTVSS VL: not shown | 0.259 | 3030 | 0.444 | 2530
hGBA-2 (antibody, human IgG1, kappa, V domains shown, Humanized IgG1; X and chain(s) not specified, so tags not built in) VH: EVQLVQSGAEVKKPGESLKISCKGSGYSFTSYWIGWVRQMPGKGLEWMGNIYPGDADTRYAPSFQGQVTISADKSISTAYLQWSSLKASDTAMYYCARMWRGNSFDYWGQGTLVTVSS VL: not shown | 0.249 | 2970 | 0.584 | 2400
hGBA-3 (antibody, human IgG1, kappa, V domains shown, Humanized IgG1; X and chain(s) not specified, so tags not built in) VH: EVQLVQSGAEVKKPGESLKISCKGSGYSFTSYWIGWVRQMPGKGLEWMGIIYPGASDTNYAPSFQGQVTISADKSISTAYLQWSSLKASDTAMYYCARIWRGNSFDYWGQGTLVTVSS VL: DIVMTQSPDSLAVSLGERATINCKSSQSLLNSGNQKNYLAWYQQKPGQPPKLLIYWASTRESGVPDRFSGSGSGTDFTLTISSLQAEDVAVYYCQNDYSYPLTFGQGTKVEIKR | 0.273 | 2750 | 0.352 | 2160
hGBA-4 (antibody, human IgG1, kappa, V domains shown, Humanized IgG1; X and chain(s) not specified, so tags not built in) VH: EVQLVQSGAEVKKPGESLKISCKGSGYSFTSYWIGWVRQMPGKGLEWMGIIYPGDAYTRYSPSFQGQVTISADKSISTAYLQWSSLKASDTAMYYCTRLWRGNSFDAWGQGTLVTVSS VL: DIVMTQSPDSLAVSLGERATINCKSSQSLLNSGNQKNYLTWYQQKPGQPPKLLIYWASTRESGVPDRFSGSGSGTDFTLTISSLQAEDVAVYYCQNDYSYPLTFGQGTKVEIKR | 0.357 | 2790 | 0.412 | 2010
hGBA-5 (antibody, human IgG1, kappa, V domains shown, Humanized IgG1; X and chain(s) not specified, so tags not built in) VH: EVQLVQSGAEVKKPGESLKISCKGSGYSFTSYWIGWVRQMPGKGLEWMGIIYPGAAYTRYAPSFQGQVTISADKSISTAYLQWSSLKASDTAMYYCARLWRGNSFDYWGQGTLVTVSS VL: not shown | 0.305 | 3320 | 0.159 | 2560
hGBA-6 (antibody, human IgG1, kappa, V domains shown, Humanized IgG1; X and chain(s) not specified, so tags not built in) VH: EVQLVQSGAEVKKPGESLKISCKGSGYTFTSYWIGWVRQMPGKGLEWMGNIYPGASYTRYSPSFQGQVTISADKSISTAYLQWSSLKASDTAMYYCTRQWRGNSFDYWGQGTLVTVSS VL: not shown | 0.257 | 2890 | 0.191 | 2240
hGBA-7 (antibody, human IgG1, kappa, V domains shown, Humanized IgG1; X and chain(s) not specified, so tags not built in) VH: EVQLVQSGAEVKKPGESLKISCKGSGYSFTSYWIGWVRQMPGKGLEWMGNIYPGEAYTRYSPSFQGQVTISADKSISTAYLQWSSLKASDTAMYYCTRLWRGNSFDYWGQGTLVTVSS VL: not shown | 0.42 | 3250 | 0.323 | 2320
hGBA-8 (antibody, human IgG1, kappa, V domains shown, Humanized IgG1; X and chain(s) not specified, so tags not built in) VH: EVQLVQSGAEVKKPGESLKISCKGSGYSFTSYWIGWVRQMPGKGLEWMGNIYPSESYTNYAPSFQGQVTISADKSISTAYLQWSSLKASDTAMYYCTRLWRGNSFDYWGQGTLVTVSS VL: not shown | 0.187 | 2700 | 0.303 | 2370
hGBA-9 (antibody, human IgG1, kappa, V domains shown, Humanized IgG1; X and chain(s) not specified, so tags not built in) VH: EVQLVQSGAEVKKPGESLKISCKGSGYTFTSYWIGWVRQMPGKGLEWMGIIYPSAAYTRYAPSFQGQVTISADKSISTAYLQWSSLKASDTAMYYCTRMWRGNSFDYWGQGTLVTVSS VL: not shown | 0.241 | 3120 | 0.286 | 2440
